The values below come from publication PMC12090729.

Read-outs that look alike come from different tables or passages of the source.

For data set [1] the following is noted: glycan lost.
A short description of data set [2]: flow cytometry, surface/total MFI ratio, HeLa. As to conditions: glycan lost; control: WT hACE2.
Data set [3] is described as follows: qRT-PCR of viral N RNA, transfected HEK293T. As to conditions: glycan lost; control: WT hACE2. On the technique in general: Real-time PCR tracks product formation cycle by cycle.
Data set [4] can be described thus: VSVpp infection, BFP+ cells, HEK293T without TMPRSS2. To be noted: glycan lost; control: WT hACE2.
The nature of data set [5]: anti-ACE2 western blot, HEK293T lysates. To be noted: glycan lost; control: WT hACE2. On the technique in general: Immunoblotting shows a protein as a band on a membrane.
Data set [6] in a line: confocal immunofluorescence, HeLa cells. To be noted: glycan lost; control: WT hACE2.
Data set [7] is described as follows: syncytia formation, GFP+ area, co-transfected HEK293T. To be noted: glycan lost; control: WT hACE2.

Turning to “hACE2 (angiotensin-converting enzyme 2): N322A”, the “other: Camostat sensitivity of S-mediated entry” value in data set [1] is reported as “decreases”. In addition, the results for the “other: susceptibility to genuine virus infection” value in data set [1] and in data set [3] were “increases” and “decreases”, respectively. The “other: viral entry receptor function, fold_change” value in data set [1] is recorded as “increases”. The “other: viral entry receptor function” value in data set [1] (control: WT hACE2) is listed as “no change”; in data set [4], “increases”. Also, the localisation_or_trafficking entry in data set [2] and in data set [6] was “no change” each time. Further, the expression_or_secretion result in data set [5] is “no change”.
On to “hACE2 (angiotensin-converting enzyme 2): N53A”, for which the results for the “other: cell-cell fusion” value in data set [1] and in data set [7] were “decreases” and “no change”, respectively. Further, in data set [1], the “other: viral entry receptor function, fold_change” value is recorded as “no change”. The localisation_or_trafficking result in data set [2] and in data set [6] was “no change” in each case. Moreover, the expression_or_secretion entry in data set [5] is “no change”.
Take “hACE2 (angiotensin-converting enzyme 2): N90A”: in data set [1], the “other: susceptibility to genuine virus infection” value was “no change”; the “other: susceptibility to genuine virus infection, fold_change” value is on record as “increases”; the “other: viral entry receptor function, fold_change” value was “no change”. For the same substance, the localisation_or_trafficking entry in data set [2] was “no change”. Moreover, the expression_or_secretion result in data set [5] was “no change”. For the same substance, the localisation_or_trafficking result in data set [6] was “no change”.
With “hACE2 (angiotensin-converting enzyme 2): T92I”, the localisation_or_trafficking entry in data set [2] and in data set [6] was “no change” in each case. Besides, the expression_or_secretion result in data set [5] is given as “no change”.
With “hACE2 (angiotensin-converting enzyme 2): N103A”, the “other: viral entry receptor function, fold_change” value in data set [1] was “no change”. In addition, the localisation_or_trafficking entry in data set [2] and in data set [6] was “no change” each time. Moreover, the expression_or_secretion result in data set [5] is reported as “no change”.
Consider “hACE2 (angiotensin-converting enzyme 2): N690A”, for which the “other: viral entry receptor function, fold_change” value in data set [1] is “increases”. Besides, in data set [2], the localisation_or_trafficking entry is on record as “no change”. Also, in data set [3], the “other: susceptibility to genuine virus infection” value was “no change” and the “other: susceptibility to genuine virus infection, fold_change” value is given as “no change”. Besides, the “other: viral entry receptor function” value in data set [4] is recorded as “increases”. Besides, in data set [5], the expression_or_secretion entry is given as “no change”. Further, the localisation_or_trafficking result in data set [6] is “no change”.
On to “hACE2 (angiotensin-converting enzyme 2): N546A”, for which the “other: viral entry receptor function, fold_change” value in data set [1] is reported as “no change”. Besides, the localisation_or_trafficking result in data set [2] and in data set [6] was “no change” in each case. For the same substance, the expression_or_secretion entry in data set [5] was “no change”.
Consider “hACE2 (angiotensin-converting enzyme 2): N432A”, for which the “other: viral entry receptor function, fold_change” value in data set [1] is “no change”. Moreover, the localisation_or_trafficking entry in data set [2] and in data set [6] was “no change” each time. For the same substance, the expression_or_secretion result in data set [5] is reported as “no change”.
